Data taken from PMC6951436 (Cell reports, 2019).
Where “and” joins values, the source holds several entries; their conditions need not be identical. Identical values can stand only once.

B1: pyruvate kinase liver isoform phosphorylated at S113 (PKL pS113) (enzyme)
chain: not shown
modifications: phosphoserine at 113 (82.8% phosphorylated)
B2: pyruvate kinase liver isoform phosphorylated at S12 (PKL pS12) (enzyme)
chain: not shown
modifications: phosphoserine at 12 (71.2% phosphorylated)

Biological target: the molecule itself
Assay: native gel or EMSA + SEC

Row | Protein | stoichiometry N
1 | B1 | 4 and 2
2 | B2 | 4 and 2
